From patent US20100062984A1, “FGF-23 POLYPEPTIDES” (priority 2007, published 2010)
Several values for one entry are separate records, joined by “and”; a condition that tells them apart may be missing. Equal values may be shown once.

B1: FGF-23(180-251): synthetic FGF-23 fragment, residues 180-251, SEQ ID NO: 3 (peptide, listed as Homo sapiens)
chain: SAEDDSERDPLNVLKPRARMTPAPASCSQELPSAEDNSPMASDPLGVVRGGRVNTHAGGTGPEGCRPFAKFI
B2: FGF-23(176-251): synthetic FGF-23 fragment, residues 176-251, SEQ ID NO: 2 (peptide, listed as Homo sapiens)
chain: RHTRSAEDDSERDPLNVLKPRARMTPAPASCSQELPSAEDNSPMASDPLGVVRGGRVNTHAGGTGPEGCRPFAKFI
B3: FGF-23(184-251): synthetic FGF-23 fragment, residues 184-251, SEQ ID NO: 4 (peptide, listed as Homo sapiens)
chain: DSERDPLNVLKPRARMTPAPASCSQELPSAEDNSPMASDPLGVVRGGRVNTHAGGTGPEGCRPFAKFI
B4: FGF-23(25-251): full-length recombinant human FGF-23(25-251) polypeptide expressed in E. coli, SEQ ID NO: 1 (protein, listed as Homo sapiens)
chain: YPNASPLLGSSWGGLIHLYTATARNSYHLQIHKNGHVDGAPHQTIYSALMIRSEDAGFVVITGVMSRRYLCMDFRGNIFGSHYFDPENCRFQHQTLENGYDVYHSPQYHFLVSLGRAKRAFLPGMNPPPYSQFLSRRNEIPLIHFNTPIPRRHTRSAEDDSERDPLNVLKPRARMTPAPASCSQELPSAEDNSPMASDPLGVVRGGRVNTHAGGTGPEGCRPFAKFI

Tests used:
Fgf-23−/− mice = assay: Intraperitoneal injection into Fgf-23−/− mice, serum phosphate; format: in vivo, mouse
Method: To further examine the in vivo phosphaturic activity of the smallest FGF-23 fragment, 0.2 nmoles of FGF-23(180-205) polypeptide were injected twice intraperitoneally into Fgf-23^−/− mice. FGF-23 R176Q polypeptide was similarly injected into the mutant mice as a positive control, and saline was injected as a vehicle control. Fgf-23^−/− animals were generated as reported elsewhere (Sitara et al., Matrix Biol., 23:421-432 (2004)). To determine the in vivo effects of the C-terminal fragment FGF23(180-205) in the absence of endogenous FGF-23 activity, equimolar amounts (0.2 nmoles) of FGF-23 R176Q polypeptide, FGF-23(180-205) polypeptide, and vehicle (saline) were injected twice intraperitoneally into Fgf-23^−/− mice at 0 and 8 hours. Blood was obtained by tail bleeding or cheek pouch puncture of 3- to 6-week-old Fgf-23^−/− animals, 8 hours after the second injection (at 16 hours). Serum levels of phosphate were determined in pre- and post-injection mice using the Stanbio LiquiUV kit (Stanbio Laboratory, Boerne, Tex.).

normal rats = assay: Acute intravenous infusion of equimolar FGF-23 polypeptides in anesthetized rats, renal clearance; format: in vivo, rat; conditions: for FENa (fractional excretion of sodium), control clearance / FEPi (fractional excretion of phosphate), control clearance: C = control clearance before infusion; for FENa (fractional excretion of sodium), control clearance / FEPi (fractional excretion of phosphate), control clearance / FENa (fractional excretion of sodium), experimental clearance / FEPi (fractional excretion of phosphate), experimental clearance: mean ± SE; for FENa (fractional excretion of sodium), experimental clearance / FEPi (fractional excretion of phosphate), experimental clearance: E = experimental clearance, i.v. infusion 1.24 nmol/kg/hour
Method: Male Sprague Dawley rats weighing 300 g were purchased from Harlan Sprague Dawley Inc. (Madison Wis.). They were fed a standard rodent diet containing 0.7% phosphate and 0.5% calcium. All animals were fasted overnight prior to the experiment. On the day of the experiment, rats were anesthetized with an intraperitoneal injection of 100-150 mg/kg body weight of 5-sec-butyl-ethyl-2-thiobarbituricacid (Inactin, Byk Gulden Konstanz, Hamburg, Germany). The rats were placed on a heated table to maintain body temperature between 36-38° C. After a tracheostomy, a PE 50 catheter was placed in the left carotid artery to monitor mean arterial blood pressure (MAP) and to collect blood samples. Catheters were also placed in the left and right jugular veins for infusions. A solution containing 2% inulin in 0.9% NaCl plus 4.5% BSA was infused at a rate of 1.2 mL/hour in one catheter, and 0.9% NaCl was infused in the other catheter at a rate of 1.2 mL/hour. A catheter (PE 90) was placed in the bladder for urine collection. Acute infusion studies were performed using the following seven different groups of animals.
Group 1: Vehicle Time control (n=8). After a ninety-minute recovery period, one […] urine sample was taken (C1) and a blood sample was taken. One hour later a second 60-minute clearance was taken (C2).
Group 2: Effect of acute infusion of full length FGF-23 polypeptide (1.24 nmol/kg/hour, n=8). This protocol is identical to group 1 except that after the control collections, full-length recombinant FGF-23 polypeptide was added to the 0.9% saline infusion to deliver 1.24 nmol/kg/hour of full length FGF-23 polypeptide. After one hour of infusion, a sixty-minute clearance was taken.
Group 3: Effect of acute infusion of FGF-23(176-251) polypeptide (1.24 nmol/kg/hour, n=8). This protocol is identical to group 2 except for the sequence of the infused polypeptide.
Group 4: Effect of acute infusion of FGF-23(180-251) polypeptide (1.24 nmol/kg/hour, n=8). This protocol is identical to group 2 except for the sequence of the infused polypeptide.
Group 5: Effect of infusion of FGF-23(184-251) polypeptide (1.24 nmol/kg/hour, n=8). This protocol is identical to group 2 except for the sequence of the infused polypeptide.
Group 6: Effect of infusion of FGF-23(206-251) polypeptide (1.24 nmol/kg/hour, n=6). This protocol is identical to group 2 except for the sequence of the infused polypeptide.
Group 7: Effect of infusion of FGF-23(180-205) polypeptide (1.24 nmol/kg/hour, n=6). This protocol is identical to group 2 except for the sequence of the infused polypeptide.
(§1) Plasma and urine phosphate concentrations were determined using the method of Chen (Chen et al., Anal Chem., 28:1756-1758 (1956)). Inulin concentrations in plasma and urine were determined using the anthrone method (Führ et al., Klin. Wochenschr., 33.:729-730 (1955)). Sodium concentrations in urine were determined by ion selective electrode (EasyLyte Plus Analyzer, Medica Corp., Bedford, Mass.). Calcium concentrations were measured using atomic absorption spectrometry (Kumar et al., Biochemistry, 15:2420-2423 (1976)) with a Perkin Elmer Model 3300 Atomic Absorption Spectrometer (Perkin Elmer, Boston, Mass.). Serum 1α,25(OH)2D concentrations were measured using an RIA kit (Diasorin, Stillwater, Minn.).
Statistically significant differences between groups were evaluated by Student's t-test for comparison between two groups or by one-way analysis of variance (ANOVA) followed by Tukey's test for multiple comparisons. All values were expressed as mean±SE. A p value less than 0.05 was considered to be statistically significant.

NaPi IIa-V5 = assay: Surface expression of V5-tagged Na+-Pi IIa transporter in OK cells (immunofluorescence); format: cell-based, opossum; conditions: OK cells expressing V5-tagged transporter, three hour treatment
Method: To assess the mechanism by which these agents altered phosphate transport, the surface expression of an epitope tagged sodium phosphate transporter, NaPi IIa-V5, was examined. An OK cell line stably expressing a VS-tagged Na+-Pi IIa transporter was generated as described elsewhere (Berndt et al., Pflugers Arch., 451:579-587 (2006)). The presence of the transporter on the cell surface of OK-N+-Pi-IIa-V5 cells was carried out using immunohistochemical methods and reagents described elsewhere (Berndt et al., Pflugers Arch., 451:579-587 (2006)).

[1] = tested on: opossum proximal tubular epithelial cells (OK); assay: OK cell Pi uptake assay; format: cell-based
Method: The OK cell Pi uptake assay was performed as described by Bowe et al. (Biochem Biophys Res Commun., 284:977-981 (2001)).

rats = assay: Chronic (72 hour) intraperitoneal administration in rats, serum phosphate and 1α,25(OH)2D; format: in vivo, rat; conditions: chronic (72 hour) administration, i.p. every 12 hours for three days
Method: as §1
Chronic animal studies were performed to determine the effect of chronic (72 hour) administration of FGF-23(176-251) polypeptide (1.24 nmol/kg/hour, n=5) or vehicle (PBS+0.1% BSA, n=6) on serum phosphate and 1α, 25 (OH)2 D concentrations. Rats received an intraperitoneal injection of FGF-23(176-251) polypeptide in 0.5 mL of normal saline every 12 hours for three days. At the end of three days, the animals were anesthetized and a terminal blood sample was taken.

[2] = acute i.v. infusion of equimolar doses, rats
[3] = listed as full length recombinant FGF-23 polypeptide

Row | Molecule | FENa (fractional excretion of sodium), control clearance (normal rats) | FEPi (fractional excretion of phosphate), control clearance (normal rats) | FENa (fractional excretion of sodium), experimental clearance (normal rats) | FEPi (fractional excretion of phosphate), experimental clearance (normal rats) | Effect on phosphate excretion (in words) (normal rats; [2]) | Amount of NaPiIIa-V5 detected on the cell surface (in words) (NaPi IIa-V5) | Radiolabeled phosphorus uptake (in words) [1] | further results
1 | FGF-23(180-205): synthetic FGF-23 fragment, residues 180-205, SAEDDSERDPLNVLKPRARMTPAPAS, SEQ ID NO: 6 (listed as Homo sapiens) | 0.4±0.1% and 0.39 ± 0.11% | 10±2% | 1.0±0.2% and 1.01 ± 0.21 % | 20±2% | increases phosphate excretion significantly |  |  | Serum phosphate level post-injection (Fgf-23−/− mice; 0.2 nmoles i.p. at 0 and 8 hours, blood at 16 hours, p<0.01 vs pre-injection, in mg/dL (unit assumed)): 10.95±0.62; Serum phosphate level pre-injection (Fgf-23−/− mice; before injection, in mg/dL (unit assumed)): 14.64±0.51
2 | FGF-23(206-251): synthetic FGF-23 fragment, residues 206-251, SEQ ID NO: 5 (CSQELPSAEDNSPMASDPLGVVRGGRVNTHAGGTGPEGCRPFAKFI; listed as Homo sapiens) | 0.19 ± 0.04% | 22 ± 5% | 0.22 ± 0.05^ % | 29 ± 2^ % | did not increase |  |  | Effect on sodium excretion (in words) (normal rats; [2]): did not increase
3 | B1 | 0.20±0.07% and 0.17 ± 0.07% | 14±3% | 0.80±0.17% and 0.76 ± 0.17 % | 26±3% | increases phosphate excretion significantly | significant decreases | directly inhibited | 
4 | B2 | 0.90±0.15% and 0.87 ± 0.15% | 15±2% | 1.21±0.17% | 33±2% |  |  |  | Serum phosphate concentration (rats; vehicle 2.19±0.11 mM, p=0.062): 1.85 ± 0.12 mM; Serum 1α,25(OH)2D concentration (rats; vehicle 114±7 pg/mL, p<0.05): 76 ± 11 pg/mL; Effect on serum Pi concentrations (in words) (Fgf-23−/− mice; given intraperitoneally): reduced
5 | B3 | 0.3±0.1% and 0.27 ± 0.09% | 16±3% | 0.6±0.16% and 0.63 ± 0.16 % | 28±3% | increases phosphate excretion significantly |  |  | 
6 | B4 |  |  |  |  |  | significant decreases | directly inhibited | FENa (fractional excretion of sodium), control clearance (normal rats; listed as FGF-23 Full Length): 0.26 ± 0.14%; FEPi (fractional excretion of phosphate), control clearance (normal rats; listed as FGF-23 Full Length): 14 ± 3%; FENa (fractional excretion of sodium), control clearance (normal rats; [3]): 0.3±0.1%; FEPi (fractional excretion of phosphate), control clearance (normal rats; [3]): 14±3%; FENa (fractional excretion of sodium), experimental clearance (normal rats; listed as FGF-23 Full Length): 0.76 ± 0.15 %; FEPi (fractional excretion of phosphate), experimental clearance (normal rats; listed as FGF-23 Full Length): 32 ± 5 %; FENa (fractional excretion of sodium), experimental clearance (normal rats; [3]): 0.7±0.2%; FEPi (fractional excretion of phosphate), experimental clearance (normal rats; [3]): 32±5%; FE Ca after infusion (normal rats; acute i.v. infusion 1.24 nmol/kg/hour): 10.0±2.3%; FE Ca before infusion (normal rats; control period before infusion): 4.1±1.2%
